IntAct's records for PubMed 31515488

B1: Phenazine biosynthesis-like domain-containing protein (Homo sapiens), P30039 (parent)
chain: MKLPIFIADAFTARAFRGNPAAVCLLENELDEDMHQKIAREMNLSETAFIRKLHPTDNFAQSSCFGLRWFTPASEVPLCGHATLASAAVLFHKIKNMNSTLTFVTLSGELRARRAEDGIVLDLPLYPAHPQDFHEVEDLIKTAIGNTLVQDICYSPDTQKLLVRLSDVYNRSFLENLKVNTENLLQVENTGKVKGLILTLKGEPGGQTQAFDFYSRYFAPWVGVAEDPVTGSAHAVLSSYWSQHLGKKEMHAFQCSHRGGELGISLRPDGRVDIRGGAAVVLEGTLTA
partner: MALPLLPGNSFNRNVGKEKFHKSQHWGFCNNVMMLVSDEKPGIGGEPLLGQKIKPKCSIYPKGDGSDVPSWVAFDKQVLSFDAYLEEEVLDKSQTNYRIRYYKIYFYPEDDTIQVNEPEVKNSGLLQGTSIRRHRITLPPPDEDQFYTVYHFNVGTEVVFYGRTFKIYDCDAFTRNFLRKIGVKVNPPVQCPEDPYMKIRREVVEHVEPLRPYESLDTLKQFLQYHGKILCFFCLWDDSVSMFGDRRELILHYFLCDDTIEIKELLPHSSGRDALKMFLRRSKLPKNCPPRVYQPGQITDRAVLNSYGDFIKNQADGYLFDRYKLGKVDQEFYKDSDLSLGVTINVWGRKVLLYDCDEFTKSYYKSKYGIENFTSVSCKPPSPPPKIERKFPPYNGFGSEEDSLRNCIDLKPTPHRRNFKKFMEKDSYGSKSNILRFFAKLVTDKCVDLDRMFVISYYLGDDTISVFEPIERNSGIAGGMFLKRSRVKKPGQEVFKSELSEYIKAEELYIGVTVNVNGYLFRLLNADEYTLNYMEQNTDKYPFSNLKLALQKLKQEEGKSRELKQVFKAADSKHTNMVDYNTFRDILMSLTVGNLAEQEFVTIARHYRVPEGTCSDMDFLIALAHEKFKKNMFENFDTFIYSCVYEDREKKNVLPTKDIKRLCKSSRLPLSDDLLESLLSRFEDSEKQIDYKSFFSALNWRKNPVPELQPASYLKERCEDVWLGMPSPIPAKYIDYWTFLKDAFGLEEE
B2: Thialysine N-epsilon-acetyltransferase (Homo sapiens), Q96F10 (parent)
chain: MASVRIREAKEGDCGDILRLIRELAEFEKLSDQVKISEEALRADGFGDNPFYHCLVAEILPAPGKLLGPCVVGYGIYYFIYSTWKGRTIYLEDIYVMPEYRGQGIGSKIIKKVAEVALDKGCSQFRLAVLDWNQRAMDLYKALGAQDLTEAEGWHFFCFQGEATRKLAGK
B3: Maspardin (Homo sapiens), Q9NZD8 (parent)
chain: MGEIKVSPDYNWFRGTVPLKKIIVDDDDSKIWSLYDAGPRSIRCPLIFLPPVSGTADVFFRQILALTGWGYRVIALQYPVYWDHLEFCDGFRKLLDHLQLDKVHLFGASLGGFLAQKFAEYTHKSPRVHSLILCNSFSDTSIFNQTWTANSFWLMPAFMLKKIVLGNFSSGPVDPMMADAIDFMVDRLESLGQSELASRLTLNCQNSYVEPHKIRDIPVTIMDVFDQSALSTEAKEEMYKLYPNARRAHLKTGGNFPYLCRSAEVNLYVQIHLLQFHGTKYAAIDPSMVSAEELEVQKGSLGISQEEQ
partner: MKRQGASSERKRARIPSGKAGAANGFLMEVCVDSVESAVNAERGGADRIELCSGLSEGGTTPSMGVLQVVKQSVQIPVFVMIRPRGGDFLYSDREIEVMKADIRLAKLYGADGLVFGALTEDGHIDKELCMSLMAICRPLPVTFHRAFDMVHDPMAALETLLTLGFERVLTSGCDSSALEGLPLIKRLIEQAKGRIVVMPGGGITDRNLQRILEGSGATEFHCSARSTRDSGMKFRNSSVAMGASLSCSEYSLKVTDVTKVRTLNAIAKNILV
B4: Zinc finger protein Aiolos (Homo sapiens), Q9UKT9 (parent)
chain: MEDIQTNAELKSTQEQSVPAESAAVLNDYSLTKSHEMENVDSGEGPANEDEDIGDDSMKVKDEYSERDENVLKSEPMGNAEEPEIPYSYSREYNEYENIKLERHVVSFDSSRPTSGKMNCDVCGLSCISFNVLMVHKRSHTGERPFQCNQCGASFTQKGNLLRHIKLHTGEKPFKCHLCNYACQRRDALTGHLRTHSVEKPYKCEFCGRSYKQRSSLEEHKERCRTFLQSTDPGDTASAEARHIKAEMGSERALVLDRLASNVAKRKSSMPQKFIGEKRHCFDVNYNSSYMYEKESELIQTRMMDQAINNAISYLGAEALRPLVQTPPAPTSEMVPVISSMYPIALTRAEMSNGAPQELEKKSIHLPEKSVPSERGLSPNNSGHDSTDTDSNHEERQNHIYQQNHMVLSRARNGMPLLKEVPRSYELLKPPPICPRDSVKVINKEGEVMDVYRCDHCRVLFLDYVMFTIHMGCHGFRDPFECNMCGYRSHDRYEFSSHIARGEHRALLK
partner: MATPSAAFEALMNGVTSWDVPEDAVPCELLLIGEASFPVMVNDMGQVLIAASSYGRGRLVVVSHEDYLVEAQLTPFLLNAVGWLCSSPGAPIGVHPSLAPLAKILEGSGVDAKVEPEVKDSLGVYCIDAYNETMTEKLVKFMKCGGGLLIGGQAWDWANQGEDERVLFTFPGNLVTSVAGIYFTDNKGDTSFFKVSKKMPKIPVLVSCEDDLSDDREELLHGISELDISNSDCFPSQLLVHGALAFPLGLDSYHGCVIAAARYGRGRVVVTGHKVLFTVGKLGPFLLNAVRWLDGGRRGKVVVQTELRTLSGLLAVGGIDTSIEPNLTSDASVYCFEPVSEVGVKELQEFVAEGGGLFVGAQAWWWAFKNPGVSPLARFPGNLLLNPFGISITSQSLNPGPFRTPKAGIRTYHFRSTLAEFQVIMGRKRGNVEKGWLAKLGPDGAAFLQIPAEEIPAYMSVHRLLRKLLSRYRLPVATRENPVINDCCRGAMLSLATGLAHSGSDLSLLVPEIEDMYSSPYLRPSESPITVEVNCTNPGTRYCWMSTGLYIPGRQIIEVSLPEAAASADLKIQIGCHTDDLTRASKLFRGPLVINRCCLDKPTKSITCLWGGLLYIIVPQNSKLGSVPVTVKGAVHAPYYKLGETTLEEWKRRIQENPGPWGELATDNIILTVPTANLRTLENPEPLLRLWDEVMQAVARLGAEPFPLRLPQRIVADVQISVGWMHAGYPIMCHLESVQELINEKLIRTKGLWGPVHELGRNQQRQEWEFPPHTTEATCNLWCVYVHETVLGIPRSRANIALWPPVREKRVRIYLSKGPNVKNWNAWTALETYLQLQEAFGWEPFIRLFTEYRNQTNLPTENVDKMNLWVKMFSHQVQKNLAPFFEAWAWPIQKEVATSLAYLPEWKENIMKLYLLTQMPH

Variants of: B1
Conditions: with efhc2_human EFHC2, Q5JST6

| effect of a mutation on the interaction | Variant |
| --- | --- |
| disrupting interaction strength | Y154C |

Variants of: B2
Conditions: with sat1_human SAT1, P21673
sat1_human SAT1, P21673, sequence (P21673 whole entry): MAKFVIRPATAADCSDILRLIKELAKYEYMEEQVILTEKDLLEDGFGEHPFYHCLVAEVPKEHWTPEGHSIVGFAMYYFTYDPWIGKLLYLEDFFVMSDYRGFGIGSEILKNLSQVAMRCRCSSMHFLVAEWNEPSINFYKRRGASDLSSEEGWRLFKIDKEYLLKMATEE

| effect of a mutation on the interaction | Variant |
| --- | --- |
| disrupting interaction strength | R126C |

Variants of: B3
Conditions: with cutc_human CUTC

| effect of a mutation on the interaction | Variant |
| --- | --- |
| disrupting interaction strength | H272D |
| with no effect | A180T |

Variants of: B4
Conditions: with tcaf1_human TCAF1, Q9Y4C2

| effect of a mutation on the interaction | Variant |
| --- | --- |
| with no effect | A24V |
